Source: patent US20040138422A1 (published 2004)
*: point of attachment. Biotin = O=C1N[C@H]2[C@H](CS[C@H]2CCCCC(=O)*)N1

Legend:
[1] = biological target: CCR4 on CCR4-transfected B300.19 mouse lymphoma cells (human) (UniProt P51679); experiment: cell-based or functional assay
[2] = biological target: CCR4 on CCR4-transfected B300.19 mouse lymphoma cells (human) (UniProt P51679); experiment: FACS, CCR4-transfected B300.19 cells, biotinylated chemokine then FITC-avidin
[3] = biological target: T1, FITC-conjugated avidin (BD Biosciences) (UniProt P02701 25-152, FITC conjugate); experiment: FACS; avidin binds the biotin of the receptor-bound chemokine
T1 construct: Detection reagent; also called FITC-avidin; FITC-labeled avidin
T1 sequence (P02701 25-152 limits assumed): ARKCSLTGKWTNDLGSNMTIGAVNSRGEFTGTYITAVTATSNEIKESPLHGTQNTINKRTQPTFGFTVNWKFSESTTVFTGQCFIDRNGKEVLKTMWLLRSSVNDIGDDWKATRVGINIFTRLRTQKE
Text: After 2 repetitive washings using staining buffer, cells were fixed in PBS with 1% FCS 1% and 1% PFA before FACS analysis.

CCR4 on CCR4-transfected B300.19 mouse lymphoma cells (human), sequence (P51679 whole entry): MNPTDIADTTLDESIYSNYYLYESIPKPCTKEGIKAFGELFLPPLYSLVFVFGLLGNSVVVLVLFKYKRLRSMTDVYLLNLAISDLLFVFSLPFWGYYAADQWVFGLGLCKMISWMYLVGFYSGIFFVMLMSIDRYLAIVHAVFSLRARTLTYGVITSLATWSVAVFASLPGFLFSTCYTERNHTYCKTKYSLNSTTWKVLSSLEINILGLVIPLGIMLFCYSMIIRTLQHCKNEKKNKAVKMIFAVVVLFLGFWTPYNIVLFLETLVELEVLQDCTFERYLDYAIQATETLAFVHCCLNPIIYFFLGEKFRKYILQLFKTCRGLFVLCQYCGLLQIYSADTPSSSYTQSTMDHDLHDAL

dose at which minimal migration is still detectable [1] | dose for optimal migration of CCR4-transfected cells [1] | MFI [2] | binding result [3] | Molecule
0.1 ng/mL | 1 to 10 ng/mL | 6.1 | – | biotinylated CCL22(K49) analogue (from UniProt O00626 25-93) (ligand)
– | – | – | binds | biotinylated CCL22(K66) analogue (ligand, Synthetic human CCL22 with one biotin; also called biotinylated h-MDC) GPYGANMEDSVCCRDYVRYRLPLRVVKHFYWTSDSCPRPGVVLLTFRDKEICADPRVPWVKMILNK(Biotin)LSQ

The next lines start with the molecule.

Molecule | dose at which minimal migration is still detectable [1] | dose for optimal migration of CCR4-transfected cells [1] | MFI [2] | binding result [3]
biotinylated CCL22(G1) analogue (from UniProt O00626 25-93) (ligand) | 0.1 ng/mL | 1 to 10 ng/mL | 5.9 | –
biotinylated CCL22(K61) analogue (from UniProt O00626 25-93) (ligand) | 0.1 ng/mL | 1 to 10 ng/mL | 6.6 | –
